In publication PMC10786891, “Massively parallel profiling of RNA-targeting CRISPR-Cas13d”:
Where a chain is given by its changes, count along the chain named. Names and notes keep the numbering of the source.

T1: EsCas13d, nuclease-dead (Eubacterium siraeum, UniProt B0MS50, R295A;H300A;R849A;H854A)
T1 sequence: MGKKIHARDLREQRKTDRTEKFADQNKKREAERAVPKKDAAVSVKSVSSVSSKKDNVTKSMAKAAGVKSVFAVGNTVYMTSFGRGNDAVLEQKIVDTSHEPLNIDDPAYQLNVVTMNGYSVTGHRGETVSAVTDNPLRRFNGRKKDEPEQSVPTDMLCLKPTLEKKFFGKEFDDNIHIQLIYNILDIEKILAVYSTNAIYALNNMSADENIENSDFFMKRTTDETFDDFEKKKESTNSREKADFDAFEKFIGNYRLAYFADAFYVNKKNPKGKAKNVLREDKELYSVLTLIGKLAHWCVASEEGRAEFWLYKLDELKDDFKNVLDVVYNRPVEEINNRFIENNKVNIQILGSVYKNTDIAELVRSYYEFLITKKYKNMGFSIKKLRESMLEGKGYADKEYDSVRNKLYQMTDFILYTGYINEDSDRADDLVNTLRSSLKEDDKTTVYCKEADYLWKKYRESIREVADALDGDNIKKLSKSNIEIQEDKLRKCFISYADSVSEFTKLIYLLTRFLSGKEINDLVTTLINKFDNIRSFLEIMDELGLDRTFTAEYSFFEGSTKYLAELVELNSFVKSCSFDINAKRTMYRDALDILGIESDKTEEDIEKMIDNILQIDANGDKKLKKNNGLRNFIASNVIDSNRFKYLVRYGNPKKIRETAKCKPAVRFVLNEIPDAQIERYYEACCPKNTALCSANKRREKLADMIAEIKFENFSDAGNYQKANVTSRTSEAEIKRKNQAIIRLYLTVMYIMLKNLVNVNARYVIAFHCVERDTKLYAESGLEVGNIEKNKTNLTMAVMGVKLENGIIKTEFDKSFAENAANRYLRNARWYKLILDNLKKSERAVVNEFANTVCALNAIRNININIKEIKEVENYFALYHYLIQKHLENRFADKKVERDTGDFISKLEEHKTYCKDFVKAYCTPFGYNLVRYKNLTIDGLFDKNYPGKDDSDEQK

B1: target 1 MT 5'PFS GCA 3'PFS AAU (mixed)
RNA 1: CACCCGUGCAAAAAUGCAGGGGUCUAAAACUGAGCGGAUAACCUCUCUAUGG
RNA 2: GGGAAUGGAUCCACAUCUACGAAUUCGCACCAUAGAGAGGUUAUCCGCUCAAAUAGAUCGGAAGAGCACACGU
B2: target 1 MT 5'PFS GUA 3'PFS GCA (mixed)
RNA 1: B1 RNA 1
RNA 2: B1 RNA 2 with C28U, A52G, A53C, U54A
B3: target 1 MT 5'PFS CAU 3'PFS CCG (mixed)
RNA 1: B1 RNA 1
RNA 2: B1 RNA 2 with G27C, C28A, A29U, A52C, A53C, U54G
B4: target 1 MT 5'PFS CAG 3'PFS AAA (mixed)
RNA 1: B1 RNA 1
RNA 2: B1 RNA 2 with G27C, C28A, A29G, U54A
B5: target 1 U3G,C7A (mixed)
RNA 1: B1 RNA 1
RNA 2: B1 RNA 2 with C28U, C45A, U49G, A52C, A53C, U54G
B6: target 1 MT 5'PFS GGC 3'PFS UGC (mixed)
RNA 1: B1 RNA 1
RNA 2: B1 RNA 2 with C28G, A29C, A52U, A53G, U54C
B7: target 1 MT 5'PFS CUA 3'PFS UCG (mixed)
RNA 1: B1 RNA 1
RNA 2: B1 RNA 2 with G27C, C28U, A52U, A53C, U54G
B8: target 1 MT 5'PFS ACC 3'PFS UCC (mixed)
RNA 1: B1 RNA 1
RNA 2: B1 RNA 2 with G27A, A29C, A52U, A53C, U54C
B9: target 1 MT 5'PFS CUA 3'PFS UCC (mixed)
RNA 1: B1 RNA 1
RNA 2: B1 RNA 2 with G27C, C28U, A52U, A53C, U54C
B10: target 1 MT 5'PFS GUA 3'PFS GUA (mixed)
RNA 1: B1 RNA 1
RNA 2: B1 RNA 2 with C28U, A52G, A53U, U54A
B11: target 1 MT 5'PFS AAG 3'PFS CAA (mixed)
RNA 1: B1 RNA 1
RNA 2: B1 RNA 2 with G27A, C28A, A29G, A52C, U54A
B12: target 1 MT 5'PFS AGG 3'PFS CCG (mixed)
RNA 1: B1 RNA 1
RNA 2: B1 RNA 2 with G27A, C28G, A29G, A52C, A53C, U54G
B13: target 1 MT 5'PFS GAC 3'PFS AUC (mixed)
RNA 1: B1 RNA 1
RNA 2: B1 RNA 2 with C28A, A29C, A53U, U54C
B14: target 1 MT 5'PFS AGG 3'PFS AAU (mixed)
RNA 1: B1 RNA 1
RNA 2: B1 RNA 2 with G27A, C28G, A29G
B15: target 1 MT 5'PFS ACC 3'PFS UCU (mixed)
RNA 1: B1 RNA 1
RNA 2: B1 RNA 2 with G27A, A29C, A52U, A53C
B16: target 1 MT 5'PFS ACC 3'PFS UCG (mixed)
RNA 1: B1 RNA 1
RNA 2: B1 RNA 2 with G27A, A29C, A52U, A53C, U54G
B17: target 1 MT 5'PFS AAG 3'PFS CAC (mixed)
RNA 1: B1 RNA 1
RNA 2: B1 RNA 2 with G27A, C28A, A29G, A52C, U54C
B18: target 1 MT 5'PFS UCA 3'PFS CAG (mixed)
RNA 1: B1 RNA 1
RNA 2: B1 RNA 2 with G27U, A52C, U54G
B19: target 1 MT 5'PFS AAC 3'PFS UCU (mixed)
RNA 1: B1 RNA 1
RNA 2: B1 RNA 2 with G27A, C28A, A29C, A52U, A53C
B20: target 1 MT 5'PFS GGC 3'PFS AGU (mixed)
RNA 1: B1 RNA 1
RNA 2: B1 RNA 2 with C28G, A29C, A53G
B21: target 1 MT 5'PFS UCA 3'PFS CAC (mixed)
RNA 1: B1 RNA 1
RNA 2: B1 RNA 2 with G27U, A52C, U54C
B22: target 1 MT 5'PFS GUA 3'PFS GCG (mixed)
RNA 1: B1 RNA 1
RNA 2: B1 RNA 2 with C28U, A52G, A53C, U54G
B23: target 1 MT 5'PFS UCA 3'PFS CAU (mixed)
RNA 1: B1 RNA 1
RNA 2: B1 RNA 2 with G27U, A52C
B24: target 1 MT 5'PFS GUA 3'PFS GCU (mixed)
RNA 1: B1 RNA 1
RNA 2: B1 RNA 2 with C28U, A52G, A53C
B25: target 1 MT 5'PFS AGC 3'PFS AUC (mixed)
RNA 1: B1 RNA 1
RNA 2: B1 RNA 2 with G27A, C28G, A29C, A53U, U54C
B26: target 1 MT 5'PFS UGC 3'PFS UGU (mixed)
RNA 1: B1 RNA 1
RNA 2: B1 RNA 2 with G27U, C28G, A29C, A52U, A53G
B27: target 1 MT 5'PFS AGG 3'PFS AAA (mixed)
RNA 1: B1 RNA 1
RNA 2: B1 RNA 2 with G27A, C28G, A29G, U54A
B28: target 1 MT 5'PFS AAG 3'PFS CAG (mixed)
RNA 1: B1 RNA 1
RNA 2: B1 RNA 2 with G27A, C28A, A29G, A52C, U54G
B29: target 1 A16U (mixed)
RNA 1: B1 RNA 1
RNA 2: B1 RNA 2 with C28U, A36U, A52C, A53C, U54G
B30: target 1 MT 5'PFS AAA 3'PFS AAG (mixed)
RNA 1: B1 RNA 1
RNA 2: B1 RNA 2 with G27A, C28A, U54G
B31: target 1 MT 5'PFS AAC 3'PFS UCC (mixed)
RNA 1: B1 RNA 1
RNA 2: B1 RNA 2 with G27A, C28A, A29C, A52U, A53C, U54C
B32: target 1 MT 5'PFS GAC 3'PFS AUU (mixed)
RNA 1: B1 RNA 1
RNA 2: B1 RNA 2 with C28A, A29C, A53U
B33: target 1 MT 5'PFS GAC 3'PFS AUA (mixed)
RNA 1: B1 RNA 1
RNA 2: B1 RNA 2 with C28A, A29C, A53U, U54A
B34: target 1 MT 5'PFS GUA 3'PFS GCC (mixed)
RNA 1: B1 RNA 1
RNA 2: B1 RNA 2 with C28U, A52G, A53C, U54C
B35: target 1 MT 5'PFS CCU 3'PFS UCU (mixed)
RNA 1: B1 RNA 1
RNA 2: B1 RNA 2 with G27C, A29U, A52U, A53C
B36: target 1 MT 5'PFS ACA 3'PFS CUA (mixed)
RNA 1: B1 RNA 1
RNA 2: B1 RNA 2 with G27A, A52C, A53U, U54A
B37: target 1 A1C,G17C (mixed)
RNA 1: B1 RNA 1
RNA 2: B1 RNA 2 with C28U, G35C, A51C, A52C, A53C, U54G
B38: target 1 MT 5'PFS CUA 3'PFS CCG (mixed)
RNA 1: B1 RNA 1
RNA 2: B1 RNA 2 with G27C, C28U, A52C, A53C, U54G
B39: target 1 MT 5'PFS GAA 3'PFS CGU (mixed)
RNA 1: B1 RNA 1
RNA 2: B1 RNA 2 with C28A, A52C, A53G
B40: target 1 MT 5'PFS GGC 3'PFS AGG (mixed)
RNA 1: B1 RNA 1
RNA 2: B1 RNA 2 with C28G, A29C, A53G, U54G
B41: target 1 A9U,C21U (mixed)
RNA 1: B1 RNA 1
RNA 2: B1 RNA 2 with C28U, C31U, A43U, A52C, A53C, U54G

target: T1, EsCas13d, nuclease-dead; experiment: crRNA (strand 1, pre-loaded); Mg2+; 40 mM Tris-HCl pH 7.5, 150 mM NaCl, 6 mM MgCl2, 1 mM DTT, 0.1% Tween-20, 0.2 mg/ml BSA; 25 C; 10 min per concentration, then washed; conditions: tags: His6-TwinStrep-SUMO cleaved; N-terminal SNAP kept (SNAP-Surface 488); label: 3' end held by stalled T7 RNA polymerase

Compared with B1, B2 is 3-fold lower in Kd: 41.5 ± 10 nM for the first, 13.8 ± 1.4 nM for the second. The second binds more tightly here.

First: B3
Second: B4
The Kd of the first is 2.2-fold lower: 23 ± 8.5 nM for the first, about 51.5 nM for the second.

B5 and B6 are within error of each other in Kd: 7.19 ± 0.31 nM for the first, 8.6 ± 1.35 nM for the second.

Compared with B7, B8 is 3.5-fold higher in Kd: 6 ± 0.95 nM for the first, about 21 nM for the second.

B9 and B10 are within error of each other in Kd: 16.2 ± 4.8 nM for the first, 12.1 ± 1.5 nM for the second.

B11 and B12 are within error of each other in Kd: 59 ± 29.5 nM for the first, 28.3 ± 6.35 nM for the second.

Compared with B13, B14 is 2.1-fold higher in Kd: about 29 nM for the first, about 60 nM for the second.

B15 and B16 are within error of each other in Kd: 8.2 ± 3.2 nM for the first, 8.5 ± 3.6 nM for the second.

Going from B17 to B18, the Kd rises from about 50.5 nM to about 84 nM (1.7-fold).

B19 and B20 are within error of each other in Kd: 22.5 ± 6.5 nM for the first, 17.1 ± 2.45 nM for the second.

B21 and B22 are within error of each other in Kd: 11 ± 5.5 nM for the first, 7.29 ± 0.49 nM for the second.

Compared with B23, B24 is 3.5-fold lower in Kd: 14.7 ± 4.85 nM for the first, 4.18 ± 0.37 nM for the second. The second binds more tightly here.

B25 and B26 are within error of each other in Kd: about 30.5 nM for the first, 38 ± 13 nM for the second.

B27 and B28 are within 1.5-fold of each other in Kd: about 50 nM for the first, about 37.5 nM for the second.

Going from B29 to B30, the Kd falls from 58 ± 9 nM to 25.5 ± 6.5 nM (2.3-fold).

First: B31
Second: B32
The Kd of the first is 1.6-fold lower: about 13.5 nM for the first, 21.4 ± 4.45 nM for the second.

Going from B33 to B34, the Kd falls from 25 ± 7.05 nM to 8.5 ± 1 nM (2.9-fold).

B35 and B36 are within error of each other in Kd: 14.4 ± 3.1 nM for the first, 12.7 ± 3.5 nM for the second.

Compared with B37, B38 is 11-fold lower in Kd: 54 ± 15 nM for the first, 5.05 ± 1.7 nM for the second.

First: B39
Second: B40
The Kd of the first is 2.2-fold lower: 15.5 ± 4.5 nM for the first, 33.5 ± 5 nM for the second.

For B41, the Kd was 8.7 ± 0.8 nM.
